B1: scFv; the commonest letter at each place (parent)
chain 1: EVKLDETGGGLVQPGRPMKLSCVASGFTFSDYWMNWVRQSPEKGLEWVAQIRNKPYNYETYYSDSVKGRFTISRDDSKSSVYLQMNNLRVEDMGIYYCTGSYYGMDYWGQGTSVTVS
chain 2: DVVMTQTPLSLPVSLGDQASISCRSSQSLVHSNGNTYLRWYLQKPGQSPKVLIYKVSNRFSGVPDRFSGSGSGTDFTLKISRVEAEDLGVYFCSQSTHVPWTFGGGTKLEIK

Experiments:
fluorescein = variants of: B1; assay: Kd (Tite-Seq); details: with fluorescein; format: scFv 4-4-20, heavy + light
[1] = variants of: B1; assay: yeast surface expression (ratio to wild type); higher = more expressed; details: format: scFv 4-4-20, heavy + light

Row | Kd (fluorescein) [µM] | Variant | yeast surface expression [1]
1 | ≥ 10 | chain 1 Y32R N35K | 1.99
2 | ≥ 10 | chain 1 Y102K Y103L G104F | 0.545
3 | ≥ 10 | chain 1 Y102D Y107K G109H | 0.302
4 | ≥ 10 | chain 1 Y32V V37I | 1.03
5 | ≥ 10 | chain 1 Y32V V37L | 0.677
6 | 7.72 | chain 1 Y32V V37K | 0.425
7 | ≥ 10 | chain 1 Y102Q M105V | 1.05
8 | 0.75 | chain 1 Y102Q M105Y | 0.947
9 | 8.56 | chain 1 Y102Q M105I | 0.843
10 | ≥ 10 | chain 1 Y102Q M105D | 0.932
11 | ≥ 10 | chain 1 Y102S G109Y | 0.248
12 | 0.00293 | chain 1 Y102S G109S | 1.12
13 | ≥ 10 | chain 1 Y102S G109L | 0.228
14 | ≥ 10 | chain 1 Y32S W33F | 0.984
15 | ≥ 10 | chain 1 Y32S W33S | 0.838
16 | 0.0113 | chain 1 Y102A M105N | 1.14
17 | 0.00575 | chain 1 Y102A M105F | 0.979
18 | 0.176 | chain 1 Y102A M105T | 1.08
19 | ≥ 10 | chain 1 Y32V W33N | 1.16
20 | ≤ 0.000316 | chain 1 Y102C W108I | 0.7
21 | 0.0318 | chain 1 Y102R M105N | 0.764
22 | 8.56 | chain 1 Y102R M105A | 1.1
23 | ≥ 10 | chain 1 Y102R M105G | 0.754
24 | ≥ 10 | chain 1 Y102C D106L | 0.306

Row | Kd (fluorescein) [µM] | Variant | yeast surface expression [1]
25 | ≥ 10 | chain 1 Y102G Y103D | 1.29
26 | ≥ 10 | chain 1 Y102D M105I | 1.08
27 | ≥ 10 | chain 1 Y102K Y103A D106W | 0.439
28 | ≥ 10 | chain 1 Y32Q W33N | 0.726
29 | ≥ 10 | chain 1 Y102L G109N | 0.369
30 | ≥ 10 | chain 1 Y102L G109M | 0.185
31 | ≥ 10 | chain 1 Y102L G109K | 0.214
32 | ≥ 10 | chain 1 Y102H G104F | 0.598
33 | ≥ 10 | chain 1 Y32R W33M | 0.809
34 | ≥ 10 | chain 1 Y32R W33I | 0.763
35 | ≥ 10 | chain 1 Y102H G104N M105S | 1.54
36 | ≥ 10 | chain 1 Y102K W108S | 0.534
37 | ≥ 10 | chain 1 Y102Q G109D | 0.485
38 | ≥ 10 | chain 1 Y102H G104F W108Y | 0.283
39 | ≥ 10 | chain 1 Y102A Y103K G109C | 0.237
40 | ≥ 10 | chain 1 Y32Q W36N V37K | 0.902
41 | ≥ 10 | chain 1 Y102Q Y103T | 1.05
42 | 8.13 | chain 1 Y102Q Y103A | 0.994
43 | ≥ 10 | chain 1 Y102Q Y103E | 0.977
44 | ≥ 10 | chain 1 Y32T N35P | 0.612
45 | ≥ 10 | chain 1 Y102L M105I | 1.57
46 | ≥ 10 | chain 1 Y102D D106T | 1.12
47 | ≥ 10 | chain 1 Y102D D106Q | 0.733
48 | 0.0038 | chain 1 Y102A D106S | 1.06

Row | Kd (fluorescein) [µM] | Variant | yeast surface expression [1]
49 | ≥ 10 | chain 1 Y102A D106L | 0.691
50 | ≥ 10 | chain 1 Y102I W108N | 0.316
51 | ≥ 10 | chain 1 Y102N G104Q | 0.924
52 | ≥ 10 | chain 1 Y102N G104I | 0.859
53 | ≥ 10 | chain 1 Y32Q M34G V37K | 1.04
54 | ≥ 10 | chain 1 Y102M Y107S | 0.685
55 | ≥ 10 | chain 1 Y32S M34K V37D | 0.882
56 | ≥ 10 | chain 1 Y32W N35T | 0.786
57 | ≥ 10 | chain 1 Y32S M34S V37M | 0.65
58 | 0.02 | chain 1 Y102K M105N | 0.916
59 | 0.0125 | chain 1 Y102K M105Y | 0.955
60 | ≥ 10 | chain 1 Y102M M105T W108T | 0.539
61 | ≥ 10 | chain 1 Y102Q G104L W108S | 0.348
62 | 0.0015 | chain 1 Y102I Y103W | 1.15
63 | 0.000846 | chain 1 Y102E W108I | 0.763
64 | ≥ 10 | chain 1 Y32R W33H W36S | 0.723
65 | ≥ 10 | chain 1 Y102R G109L | 0.279
66 | ≥ 10 | chain 1 Y102H Y107F G109K | 0.242
67 | ≥ 10 | chain 1 Y102D Y103L G109P | 0.465
68 | ≥ 10 | chain 1 Y102A G109K | 0.279
69 | ≥ 10 | chain 1 Y32R M34S | 0.191
70 | ≥ 10 | chain 1 Y102M Y103E | 1.26
71 | ≥ 10 | chain 1 Y102M Y103T | 0.766
72 | ≥ 10 | chain 1 Y102E Y107A | 0.904

Row | Kd (fluorescein) [µM] | Variant | yeast surface expression [1]
73 | ≥ 10 | chain 1 Y32W V37S | 0.579
74 | ≥ 10 | chain 1 Y102S D106W | 0.385
75 | ≥ 10 | chain 1 Y102S D106R | 0.499
76 | ≥ 10 | chain 1 Y32W M34W | 0.838
77 | 0.205 | chain 1 Y32W M34N | 0.386
78 | ≥ 10 | chain 1 Y102H D106I | 0.595
79 | ≥ 10 | chain 1 Y102H D106G | 0.856
80 | ≥ 10 | chain 1 Y102H D106Q | 0.937
81 | 0.000479 | chain 1 Y102F W108T | 0.854
82 | 5.96 | chain 1 Y102L Y107S | 1.78
83 | ≥ 10 | chain 1 Y102M D106T | 1.07
84 | ≥ 10 | chain 1 Y102P W108Y | 0.464
85 | ≥ 10 | chain 1 Y102N W108D | 0.259
86 | 0.0335 | chain 1 Y102Q | 1.12
87 | 0.00162 | chain 1 Y102A | 1.17
88 | 0.0252 | chain 1 Y102R | 1.06
89 | ≥ 10 | chain 1 Y102D | 1.16
90 | ≥ 10 | chain 1 Y102E | 0.889
91 | 0.00279 | chain 1 Y102I | 1.16
92 | 0.61 | chain 1 Y102L | 0.974
93 | 0.000869 | chain 1 Y102S | 1.14
94 | 0.00334 | chain 1 Y102C | 0.924
95 | 0.0175 | chain 1 Y102N | 1.04
96 | 0.004 | chain 1 Y102H | 1.17

Row | Kd (fluorescein) [µM] | Variant | yeast surface expression [1]
97 | ≥ 10 | chain 1 Y102P | 0.77
98 | 0.00309 | chain 1 Y102F | 0.776
99 | 1.91 | chain 1 Y102G | 0.965
100 | 4.6 | chain 1 Y102M | 0.944
101 | 0.021 | chain 1 Y102K | 0.81
102 | ≥ 10 | chain 1 Y32W | 0.805
103 | ≥ 10 | chain 1 Y32V | 1.02
104 | 0.155 | chain 1 Y32S | 1.06
105 | ≥ 10 | chain 1 Y32Q | 0.929
106 | ≥ 10 | chain 1 Y32T | 1.04
107 | 0.064 | chain 1 Y32R | 0.954
108 | ≥ 10 | chain 1 Y102L G104C | 0.323
109 | ≥ 10 | chain 1 Y102L G104W | 0.263
110 | ≥ 10 | chain 1 Y102M M105F | 0.995
111 | ≥ 10 | chain 1 Y32W W33Y | 0.945
112 | ≥ 10 | chain 1 Y32W W33F | 0.941
113 | ≥ 10 | chain 1 Y32W W33Q | 0.886
114 | ≥ 10 | chain 1 Y32W W33P | 0.825
115 | 2.47 | chain 1 Y32P W33C | 0.832
116 | ≥ 10 | chain 1 Y32P W33I | 0.908

— the FLAb antibody collection (doi:10.7554/elife.23156)
